Test results published in PMC10973503.

Biological target: α-synuclein (α-syn) 1-140 (UniProt P37840)
Assay: WT-PFF-seeded ThT fibrillation kinetics, NS-TEM
Details: reference: unmodified WT monomer plus WT PFF; sites S87

α-synuclein (α-syn) 1-140 (from UniProt P37840) pS87 monomer plus WT PFF
binding against the reference: weaker
